Test results reported in PMC5069622, “Crystal structure of human aldehyde dehydrogenase 1A3 complexed with NAD^+ and retinoic acid” (Scientific Reports, 2016).

Biological target: the molecule itself
Assay: SEC; gel filtration of the purified protein, data not shown; native molecular mass of about 224000 Da

B1: human aldehyde dehydrogenase 1A3 (enzyme, UniProt P47895 1-512, looked up)
chain: MATANGAVENGQPDRKPPALPRPIRNLEVKFTKIFINNEWHESKSGKKFATCNPSTREQICEVEEGDKPDVDKAVEAAQVAFQRGSPWRRLDALSRGRLLHQLADLVERDRATLAALETMDTGKPFLHAFFIDLEGCIRTLRYFAGWADKIQGKTIPTDDNVVCFTRHEPIGVCGAITPWNFPLLMLVWKLAPALCCGNTMVLKPAEQTPLTALYLGSLIKEAGFPPGVVNIVPGFGPTVGAAISSHPQINKIAFTGSTEVGKLVKEAASRSNLKRVTLELGGKNPCIVCADADLDLAVECAHQGVFFNQGQCCTAASRVFVEEQVYSEFVRRSVEYAKKRPVGDPFDVKTEQGPQIDQKQFDKILELIESGKKEGAKLECGGSAMEDKGLFIKPTVFSEVTDNMRIAKEEIFGPVQPILKFKSIEEVIKRANSTDYGLTAAVFTKNLDKALKLASALESGTVWINCYNALYAQAPFGGFKMSGNGRELGEYALAEYTEVKTVTIKLGDKNP
notes: human ALDH1A3, full-length open reading frame amplified from cDNA of the mesenchymal glioma stem cell line 83 and cloned into pDEST17; predicted molecular weight 56108 Da; Crystallised after pre-incubation with 1 mM NAD+ and 1 mM all-trans retinoic acid; No removal of the His tag is described; In the crystal no density for the N-terminal portion and the last four residues; also called ALDH1A3; …
- stoichiometry N: 4
